According to PMC6608630, “The structural characterization of a glucosylglycerate hydrolase provides insights into the molecular mechanism of mycobacterial recovery from nitrogen starvation” (IUCrJ, 2019):

Tests used:
[1] = substrate: O=C(O)[C@@H](CO)O[C@H]1O[C@H](CO)[C@@H](O)[C@H](O)[C@H]1O; assay: released glucose by glucose oxidase assay; allosteric sigmoidal fit; type: biochemical, Mycolicibacterium hassiacum; settings: 20 mM sodium phosphate pH 6.0, 100 mM KCl, 5 mM MgCl2, 50 °C, Hill h 1.77, tag-less enzyme
Text: released glucose by glucose oxidase assay; allosteric sigmoidal fit on MhGgH (M. hassiacum glucosylglycerate hydrolase)

[2] = substrate: O=C(O)[C@@H](CO)O[C@H]1O[C@H](CO)[C@@H](O)[C@H](O)[C@@H]1O; assay: released mannose by K-MANGL assay kit; allosteric sigmoidal fit; type: biochemical, Mycolicibacterium hassiacum; settings: 20 mM sodium phosphate pH 6.0, 100 mM KCl, 5 mM MgCl2, 50 °C, Hill h 1.29, tag-less enzyme, rough estimation, incomplete kinetic curve
Text: released mannose by K-MANGL assay kit; allosteric sigmoidal fit on MhGgH (M. hassiacum glucosylglycerate hydrolase)

B1: MhGgH (M. hassiacum glucosylglycerate hydrolase) (Mycolicibacterium hassiacum DSM 44199) (protein)
chain: MPHDPSFTPTQLAARAAYLLRGNDLGTMTTAAPLLYPHMWSWDAAFVAIGLAPLSVERAVVELDTLLSAQWRNGMIPHIVFANGVDGYFPGPARWATATLADNAPRNRLTSGITQPPVHAIAVQRILEHARTRGRSTRAVAEAFLDRRWGDLMRWHRWLAECRDRNERGRITLYHGWESGMDNSPRWDSAYANVVPGKLPEYQRADNVIITDPSQRPSDGEYDRYLWLLEEMKAVRYDDERLPSVMSFQVEDVFFSAIFSVACQVLAEIGEDYKRPHADVKDLYLWAERFRAGVVETTDQRTGAARDFDVLAEKWLVTETAAQFAPLLCGGLPHDRERALLKLLEGPRFCGHPDLKYGLIPSTSPVSRDFRPREYWRGPVWPVLTWLFSWCFARRGWAERARLLRQEGLRQASDGSFAEYYEPFTGEPLGSMQQSWTAAAVLDWLG
notes: full-length from pETM11-MhGgH, N-terminal His tag removed with TEV protease leaving Gly-Ala dipeptide; E. coli BL21(DE3); homotetramer; last residue Gly446
K0.5 [1]: 9.36 ± 0.69 mM
Vmax [1]: 3.6 µmol/min/mg
K0.5 [2]: 84.18 ± 30.27 mM
Vmax [2]: 3.09 µmol/min/mg
